The record followed here is the supplement of paper PMC9170038.

Series [1] has as its system MS2 coat protein. Put plainly: apparent KD of MS2 coat protein, switch ON state; designed switch direction (-1 OFF switch, 1 ON switch): 1; higher = weaker reporter binding. The following applies: FMN input: 0 or 200 uM; Eterna round: R93 (includes R88 designs). An outline of the steps: (§1)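 Values are apparent KD, taken as the median for each design of fits to normalised binding curves from individual clusters. The designed RNA switches were transcribed on-chip from Illumina sequencing clusters and exposed to SNAP-549-labelled MS2 coat protein at twofold increasing amounts from 0.7 or 1.5 nM to 3 µM. Titration used 100 mM Tris-HCl pH 7.5, 80 mM KCl and 4 mM MgCl2, without or with constant ligand.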

Series [2] has as its system MS2 coat protein. Description: apparent KD of MS2 coat protein, switch OFF state (with FMN for OFF switches, without FMN for ON switches); designed switch direction (-1 OFF switch, 1 ON switch): 1; higher = weaker reporter binding. Particulars: FMN input: 0 or 200 uM; Eterna round: R93 (includes R88 designs). A digest of the protocol: as §1

For “AAGAAACAUGAGGAUCACCCAUGUAGAAAUAUGGGAGGAUAUACGAAGACGAAAGUCAAAGUAGAAGGCCUAAGAA [Mat - Same State 1 - Eli mod - D105]”, the “apparent KD of MS2 coat protein” value is 36.3 nM in the series on MS2 coat protein [1] and 82 nM in the series on MS2 coat protein [2].

On to “AAGAAACAUGAGGAUCACCCAUGUCAAGAGAGACAAGGAUAUCUGAAUUAAUUAAAUUAAGGAGAAGGUGUGAAAA [71%, Same state of confusion2, 1]”, for which the “apparent KD of MS2 coat protein” value came out at 201 nM in the series on MS2 coat protein [1] and 253 nM in the series on MS2 coat protein [2].

On to “AAGAAACAUGAGGAUCACCCAUGUGAUAAUAUGGGAGGAUAUACGAAGACGAAAGACGAAGUAGAAGGCCUAAGAA [Garnet 46]”, for which the “apparent KD of MS2 coat protein” value turned out to be 45.3 nM in the series on MS2 coat protein [1] and 138 nM with MS2 coat protein [2].

In the case of “AAGAAAGAAACAUAGGAUAUCAAGGAUAUAACAUGAGGAUCACCCAUGUAAAUACGAAAGUAUAAUGAGAAGGAUGGAUGAUCUUC [Meechl MS2 SS2]”, the “apparent KD of MS2 coat protein” value in the series with MS2 coat protein [1] was determined as 28.9 nM; with MS2 coat protein [2], 44.9 nM.

With “AAGAAUUAAACGCAGGAUAUGUACCCACGUACAUGAGGAUCACCCAUGUGCCUAUAAGGGUCGAGGCAGAAGGGCGAUAUAGAAA [Reteriusge]”, the entries for the “apparent KD of MS2 coat protein” value with MS2 coat protein [1] and in the series on MS2 coat protein [2] were 15.8 nM and 81.2 nM, respectively.

As for “AAGAGAAGAACUGAGGAUAUCAGGGAUGGUACAUGAGGAUCACCCAUGUUGGCAAGCGAAGAAACUGAGAAGGCAGAGAAGAAGAA [JR_SameState2_Sub6]”, the “apparent KD of MS2 coat protein” value in the series with MS2 coat protein [1] was 29.4 nM; in the series on MS2 coat protein [2], 34.3 nM.

For “AAGAGACAUGAGGAUCACCCAUGUAGGAUUAUGGGAGGAUAUACAAAGACGAGAGUCAGAGUAGAAGGCCUAGGAU [salish99-ss1-130(!)]”, the “apparent KD of MS2 coat protein” value in the series with MS2 coat protein [1] is 21.5 nM; in the series with MS2 coat protein [2], 59.9 nM.

Take “AAGAUACAUGAGGAUCACCCAUGUCGAGAGAGACGAGGAUAUCUGAAUCGAUUAGAUUACGGAGAAGGCGUGAAAA [LROPPY Same State 1 - v07_deltaG=1.9]”: the figures for the “apparent KD of MS2 coat protein” value in the series with MS2 coat protein [1] and with MS2 coat protein [2] were 19.4 nM and 34.3 nM, respectively.

Regarding “AAGAUACAUGAGGAUCACCCAUGUUUUGGUGGGUCAGGAUAUAAAAAGAAUGAGAGAAAGUUAGAAGGGACAAAGA [JR_SS001_Sub005]”, the “apparent KD of MS2 coat protein” value was determined as 201 nM with MS2 coat protein [1] and 309 nM in the series with MS2 coat protein [2].

As for “AAGCAACAUGAGGAUCACCCAUGUAGCAGGGUCAGAGGAUAUUUGAUCUUGGCAAGGGUUAAAGAAGGUUGAUAAA [Rianqu]”, the “apparent KD of MS2 coat protein” value in the series on MS2 coat protein [1] was found to be 264 nM; with MS2 coat protein [2], 140 nM.

Consider “AAGUCACAUGAGGAUCACCCAUGUCGUAAACGAUGAGGAUAUAGGAACGAAAGAAAAAAACUAGAAGGUAUAACAA [SameState1-03]”, for which the “apparent KD of MS2 coat protein” value turned out to be 28.8 nM with MS2 coat protein [1] and 26.7 nM in the series with MS2 coat protein [2].

As for “AAUAAACAUGAGGAUCACCCAUGUAAAUGGGCGAUAGGAUAUGCGAAAAUAAAGAAAGAAGCAGAAGGAUCGAAGA [Ex5 sub 3]”, the figures for the “apparent KD of MS2 coat protein” value with MS2 coat protein [1] and in the series on MS2 coat protein [2] were 224 nM and 51.9 nM, respectively.

“AAUAAACAUGAGGAUCACCCAUGUAAAUGGGUACAAGGAUAUGCGAAAAGAAACAAAGAAGCAGAAGGUGUAAAGA [Ex5 sub 2]”: the “apparent KD of MS2 coat protein” value with MS2 coat protein [1] was determined as 347 nM; with MS2 coat protein [2] it was 432 nM.

For “AAUAAACAUGAGGAUCACCCAUGUAGAAACAUGGGAGGAUAUACAAAGACGAAAGUCAAAGUAGAAGGCCUAAAAA [Mat - Same State 1 - Mod - D168]”, the “apparent KD of MS2 coat protein” value in the series on MS2 coat protein [1] came out at 150 nM; in the series on MS2 coat protein [2], 329 nM.

Consider “AAUAAACAUGAGGAUCACCCAUGUAGAAACAUGGGAGGAUAUACAAAGACGAAAGUCAAAGUAGAAGGCCUAAUAA [Mat - Same State 1 - Mod - D167]”, for which the “apparent KD of MS2 coat protein” value was determined as 92.7 nM with MS2 coat protein [1] and 42.4 nM with MS2 coat protein [2].

Regarding “AAUAAACAUGAGGAUCACCCAUGUAGAAAUAUGGGAGGAUAUACAAAGACGAAAGUCAAAGUAGAAGGCCUAAUAU [Mat - Same State 1 - Mod - D154]”, the “apparent KD of MS2 coat protein” value in the series on MS2 coat protein [1] worked out at 23.2 nM; in the series with MS2 coat protein [2], 64.7 nM.

Turning to “AAUAAUUAUAUCGAGGAUAUCGGUAAUAAGACAUGAGGAUCACCCAUGUAAUAAGGUUAAAUAAACGAGAAGGCGAAGGGUGAAA [JR_SS002_Sub006]”, the “apparent KD of MS2 coat protein” value is 80.9 nM in the series on MS2 coat protein [1] and 49.2 nM with MS2 coat protein [2].

Regarding “AAUACACAUGAGGAUCACCCAUGUAGAAAGAAGGCAGGAUAUCAGAUCCACAUGUGAUAAUGAGAAGGGCCAAUAU [SS 1 Tesla 10]”, the “apparent KD of MS2 coat protein” value in the series with MS2 coat protein [1] amounted to 21.9 nM; with MS2 coat protein [2], 171 nM.

With “AAUAUAUUAAGUGAGGAUAUCAAAGAAAAAACAUGAGGAUCACCCAUGUGGGAAACCUGGUCGGGUGAGAAGGCACUUAAUAUAU [Samwise Clockwise 28 - Jieux - Same State 2]”, the “apparent KD of MS2 coat protein” value in the series with MS2 coat protein [1] stood at 31.3 nM; in the series with MS2 coat protein [2], 314 nM.

With “AAUAUAUUAAGUGAGGAUAUCGAGGAAAAAACAUGAGGAUCACCCAUGUGGGAAACAUGGUAGGGUGAGAAGGCACUUAAUAUAU [Samwise Clockwise 24 - Jieux - Same State 2]”, the “apparent KD of MS2 coat protein” value with MS2 coat protein [1] is 132 nM; with MS2 coat protein [2] it was 572 nM.

Turning to “AAUAUAUUAUCUGAGGAUAUCAUAGGAAAAACAUGAGGAUCACCCAUGUGGGAAACCUGGUCGGGUGAGAAGGUGGAUAAUAUAU [Samwise Clockwise 33 - Jieux - Same State 2]”, the “apparent KD of MS2 coat protein” value with MS2 coat protein [1] came to 58.7 nM; with MS2 coat protein [2], 341 nM.

Take “AAUAUAUUAUUUAAGGAUAUCAUAGGAAACACAUGAGGAUCACCCAUGUGGGAAACUUGGUCGGGUGAGAAGGUGGAUAAUAUAU [Samwise Clockwise 36 - Jieux - Same State 2]”: the entries for the “apparent KD of MS2 coat protein” value in the series on MS2 coat protein [1] and in the series with MS2 coat protein [2] were 17.4 nM and 24.6 nM, respectively.

“AAUCCAAAUAGUUAGGAUAUGGGAAUAAAAACAUGAGGAUCACCCAUGUAAUUGAAACAAGUUAACCAGAAGGGACAGGGUGAAA [JR_SS002_Sub210]”: the “apparent KD of MS2 coat protein” value in the series on MS2 coat protein [1] came to 67.5 nM; in the series on MS2 coat protein [2], 16.6 nM.

Regarding “ACAAACAAAAAAGAGGAUAUCCAAAACAAAACAUGAGGAUCACCCAUGUAAAAGAAAAGAAAAUGGGAGAAGGCUUACAACAAAC [SS2 M 22]”, the “apparent KD of MS2 coat protein” value in the series with MS2 coat protein [1] is 19.4 nM; in the series on MS2 coat protein [2] it was 28.2 nM.

As to “ACAAAUAAAAGAGAGGAUAUCCAAAAGAAAACAUGAGGAUCACCCAUGUGAAAGAAAAUAAAAUGGGAGAAGGCUCAGAAUAAUA [Topaz 30]”, the “apparent KD of MS2 coat protein” value in the series on MS2 coat protein [1] amounted to 16.4 nM; in the series on MS2 coat protein [2], 83.2 nM.

Consider “ACAAGACAUGAGGAUCACCCAUGUAAAGAAAACGCAGGAUAUGCAAAAAAAUUCAUGGGUGCAGAAGGGCGAAAAA [Default title]”, for which the figures for the “apparent KD of MS2 coat protein” value with MS2 coat protein [1] and with MS2 coat protein [2] were 153 nM and 34.2 nM, respectively.

For the sequence “ACGAGGAAGAGAGAGGAUAUCCAAAGGAAAACAUGAGGAUCACCCAUGUAAAAGGUAGGAAAUUGGGAGAAGGCUCAAGAGAGAG [salish99-ss2-069]”, the figures for the “apparent KD of MS2 coat protein” value in the series on MS2 coat protein [1] and in the series on MS2 coat protein [2] were 32.4 nM and 34.6 nM, respectively.

Regarding “ACUACACAUGAGGAUCACCCAUGUCAGGCCGGACUAGGAUAUUAUAAACCAGAGUAAAAAUAAGAAGGAGUAGGAA [JR_SS001_Sub310]”, the “apparent KD of MS2 coat protein” value in the series on MS2 coat protein [1] stood at 39.2 nM; in the series with MS2 coat protein [2], 61.3 nM.

For the sequence “ACUUCACAUGAGGAUCACCCAUGUCAGGCCGGACUAGGAUAUUAUCAAGCAGCGUAACCAUAAGAAGGAGUAGGAA [JR_SS001_Sub313]”, the results for the “apparent KD of MS2 coat protein” value with MS2 coat protein [1] and in the series with MS2 coat protein [2] were 57.7 nM and 82.5 nM, respectively.

Turning to “AGAAAACAUGAGGAUCACCCAUGUAGAAAUAUGGGAGGAUAUACAUAGACGAAAGUCAUAGUAGAAGGCCUAAAGA [Mat - Same State 1 - Meechl mod - D128]”, the results for the “apparent KD of MS2 coat protein” value with MS2 coat protein [1] and in the series on MS2 coat protein [2] were 15 nM and 49.4 nM, respectively.

Turning to “AGAAAACAUGAGGAUCACCCAUGUAGAAAUAUGGGAGGAUAUACGAAGACGAAAGUCGAAGUAGAAGGCCUAAAGA [Mat - Same State 1 - Meechl mod - D126]”, the “apparent KD of MS2 coat protein” value was 23.2 nM with MS2 coat protein [1] and 50.8 nM in the series with MS2 coat protein [2].

Turning to “AGAAAGAAAAGAGAGGAUAUCUAAAAGAAAACAUGAGGAUCACCCAUGUAAAAGAAAAGAAAAUGGGAGAAGGCUCAUGAGAAAG [JL Skelter Mod 7 In the Red]”, the “apparent KD of MS2 coat protein” value in the series on MS2 coat protein [1] was determined as 101 nM; in the series on MS2 coat protein [2], 59.7 nM.

As to “AGAAAUAAAAGAGAGGAUAUCCAAAAGAAAACAUGAGGAUCACCCAUGUAAAAGAAAAUAAAAUGGGAGAAGGCUCAUAUUAAAG [JL Skelter 2 mod 3]”, the “apparent KD of MS2 coat protein” value in the series with MS2 coat protein [1] was 44.9 nM; in the series with MS2 coat protein [2] it was 146 nM.

Take “AGAAAUAAAAGAGAGGAUAUCCAAAAGAAAACAUGAGGAUCACCCAUGUACACGAAAGUGAAAUGGGAGAAGGCUCAAAAUAAAG [80% More Helter Skelter 2 + Hairpin]”: the “apparent KD of MS2 coat protein” value amounted to 121 nM with MS2 coat protein [1] and 536 nM in the series on MS2 coat protein [2].

For “AGAAAUAAAUGAGAGGAUAUCCAAAAGAAAACAUGAGGAUCACCCAUGUAAAAGAAAAUAAAAUGGGAGAAGGCUCGAAAUAAAG [80%, More Helter Skelter 2]”, the “apparent KD of MS2 coat protein” value in the series with MS2 coat protein [1] was 22.4 nM; in the series with MS2 coat protein [2], 68.5 nM.

Consider “AGAAAUAAAUGAGAGGAUAUCCAAAAGAAAACAUGAGGAUCACCCAUGUAAAAGAAAAUAAAGUGGGAGAAGGCUCGAAAUAAAG [80%, More Helter Skelter 2]”, for which the entries for the “apparent KD of MS2 coat protein” value in the series on MS2 coat protein [1] and in the series with MS2 coat protein [2] were 23.3 nM and 43.5 nM, respectively.

As for “AGAAUAAAAAGAGAGGAUAUCCAUAAGAAAACAUGAGGAUCACCCAUGUGAAAGAUAAUAAAAUGGGAGAAGGCUCAAAAUAAGA [Topaz 45]”, the “apparent KD of MS2 coat protein” value in the series with MS2 coat protein [1] is 21 nM; with MS2 coat protein [2], 20.2 nM.
